Test [1] concerns the target Recombinant human MASP-2 (specificity ELISA, Example 14) (human, UniProt O00187 16-686, limits assumed). Nature of the test: solid phase ELISA, immobilized protease, mean apparent KD of two lots. The source says:
(§1) The apparent dissociation constant (KD) was estimated by nonlinear regression using a 4-parameter logistic model.
(§2) Fold selectivity calculated as KD(related serine protease)/mean KD(MASP-2).

The target of test [2] is T1, C1s (human, UniProt P09871 16-688, limits assumed).
T1 construct: Species read from 'Recombinant human MASP-2 or C1r, C1s, CFD, MASP-1 and MASP-3'
T1 sequence (looked up): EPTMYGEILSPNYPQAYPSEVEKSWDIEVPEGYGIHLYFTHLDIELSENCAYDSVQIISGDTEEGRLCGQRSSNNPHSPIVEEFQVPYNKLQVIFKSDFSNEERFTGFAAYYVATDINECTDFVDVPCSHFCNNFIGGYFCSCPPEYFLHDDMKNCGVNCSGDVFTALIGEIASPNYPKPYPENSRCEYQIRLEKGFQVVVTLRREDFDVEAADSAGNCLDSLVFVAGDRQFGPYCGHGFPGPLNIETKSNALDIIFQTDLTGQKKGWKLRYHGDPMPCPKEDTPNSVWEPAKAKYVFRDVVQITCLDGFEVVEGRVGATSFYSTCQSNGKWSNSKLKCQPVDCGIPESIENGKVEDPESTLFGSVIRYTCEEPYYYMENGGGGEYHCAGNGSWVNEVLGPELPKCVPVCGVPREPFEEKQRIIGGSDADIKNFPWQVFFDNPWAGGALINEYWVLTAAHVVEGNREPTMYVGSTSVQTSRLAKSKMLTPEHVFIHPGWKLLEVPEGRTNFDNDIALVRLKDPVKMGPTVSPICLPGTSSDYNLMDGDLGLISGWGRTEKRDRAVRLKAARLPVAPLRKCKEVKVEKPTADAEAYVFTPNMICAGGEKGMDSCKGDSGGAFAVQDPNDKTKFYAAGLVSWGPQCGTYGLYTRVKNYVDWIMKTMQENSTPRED
The description is as above.
Excerpt: as §1, §2

The target in test [3] is T2, C1r (human, UniProt P00736 18-705, limits assumed).
T2 construct: Species read from 'Recombinant human MASP-2 or C1r, C1s, CFD, MASP-1 and MASP-3'
T2 sequence (looked up): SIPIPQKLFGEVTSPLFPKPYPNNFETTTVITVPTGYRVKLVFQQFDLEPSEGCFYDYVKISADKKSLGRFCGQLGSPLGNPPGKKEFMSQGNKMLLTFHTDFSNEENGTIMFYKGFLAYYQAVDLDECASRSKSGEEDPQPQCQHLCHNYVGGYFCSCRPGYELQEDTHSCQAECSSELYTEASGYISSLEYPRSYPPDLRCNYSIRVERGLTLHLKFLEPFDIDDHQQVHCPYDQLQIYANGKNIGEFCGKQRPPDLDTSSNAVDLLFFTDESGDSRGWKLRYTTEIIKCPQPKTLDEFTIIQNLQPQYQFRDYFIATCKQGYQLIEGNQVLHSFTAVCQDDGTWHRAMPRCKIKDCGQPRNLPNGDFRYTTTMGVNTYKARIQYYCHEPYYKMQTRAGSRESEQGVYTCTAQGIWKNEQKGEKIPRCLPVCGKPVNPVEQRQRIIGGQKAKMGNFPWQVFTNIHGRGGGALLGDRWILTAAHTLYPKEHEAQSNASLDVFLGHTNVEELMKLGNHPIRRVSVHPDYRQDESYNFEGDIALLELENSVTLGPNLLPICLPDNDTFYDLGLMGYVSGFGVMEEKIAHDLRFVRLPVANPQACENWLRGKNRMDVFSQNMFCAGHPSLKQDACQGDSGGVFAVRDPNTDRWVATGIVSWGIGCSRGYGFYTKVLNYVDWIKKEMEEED
The description is as above.
Excerpt: as §1, §2

Test [4] has as its target T3, MASP-1 (human, UniProt P48740 20-699, limits assumed).
T3 construct: Species read from 'Recombinant human MASP-2 or C1r, C1s, CFD, MASP-1 and MASP-3'
T3 sequence (looked up): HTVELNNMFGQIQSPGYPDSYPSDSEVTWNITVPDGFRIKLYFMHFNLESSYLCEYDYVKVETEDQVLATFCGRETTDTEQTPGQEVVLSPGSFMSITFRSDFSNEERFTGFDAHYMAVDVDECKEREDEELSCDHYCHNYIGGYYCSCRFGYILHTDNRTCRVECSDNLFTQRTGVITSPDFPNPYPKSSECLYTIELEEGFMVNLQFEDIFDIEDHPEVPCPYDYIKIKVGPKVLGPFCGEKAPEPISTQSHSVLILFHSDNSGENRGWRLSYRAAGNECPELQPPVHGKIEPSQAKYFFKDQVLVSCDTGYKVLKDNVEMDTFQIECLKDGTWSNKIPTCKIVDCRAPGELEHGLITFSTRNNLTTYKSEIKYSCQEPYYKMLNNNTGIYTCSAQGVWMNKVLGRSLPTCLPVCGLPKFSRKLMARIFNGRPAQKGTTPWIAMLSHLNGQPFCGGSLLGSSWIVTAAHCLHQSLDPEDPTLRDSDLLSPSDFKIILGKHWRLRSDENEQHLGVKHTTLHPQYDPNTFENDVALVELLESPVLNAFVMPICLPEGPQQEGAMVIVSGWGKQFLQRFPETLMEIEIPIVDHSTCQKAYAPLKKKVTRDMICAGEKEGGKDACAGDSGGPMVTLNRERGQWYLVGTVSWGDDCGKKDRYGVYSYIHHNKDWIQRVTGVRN
The experiment in a line: solid phase ELISA, immobilized protease, apparent KD.
Excerpt: as §1
A general note: In an ELISA, binding on a coated surface is turned into a signal by an enzyme label.

Test [5] addresses dog MASP-2 (endogenous, in dog serum) (dog). The experiment in a line: cell-based or functional assay.
Test [6] concerns the target rabbit MASP-2 (endogenous, in rabbit serum) (rabbit). Nature of the test: cell-based or functional assay.
Test [7] addresses mouse MASP-2 (endogenous, in mouse serum or hirudin plasma) (mouse, UniProt Q91WP0 20-685). The experiment in a line: cell-based or functional assay.
The target of test [8] is cynomolgus monkey MASP-2 (endogenous, in cynomolgus monkey serum) (cynomolgus monkey, UniProt O00187 16-686 (human entry), limits assumed). The experiment in a line: cell-based or functional assay.
Test [9] addresses human MASP-2 (endogenous, in normal human serum) (human, UniProt O00187 16-686). Nature of the test: cell-based or functional assay.

Chain of mouse MASP-2 (endogenous, in mouse serum or hirudin plasma) (Q91WP0 20-685 limits assumed): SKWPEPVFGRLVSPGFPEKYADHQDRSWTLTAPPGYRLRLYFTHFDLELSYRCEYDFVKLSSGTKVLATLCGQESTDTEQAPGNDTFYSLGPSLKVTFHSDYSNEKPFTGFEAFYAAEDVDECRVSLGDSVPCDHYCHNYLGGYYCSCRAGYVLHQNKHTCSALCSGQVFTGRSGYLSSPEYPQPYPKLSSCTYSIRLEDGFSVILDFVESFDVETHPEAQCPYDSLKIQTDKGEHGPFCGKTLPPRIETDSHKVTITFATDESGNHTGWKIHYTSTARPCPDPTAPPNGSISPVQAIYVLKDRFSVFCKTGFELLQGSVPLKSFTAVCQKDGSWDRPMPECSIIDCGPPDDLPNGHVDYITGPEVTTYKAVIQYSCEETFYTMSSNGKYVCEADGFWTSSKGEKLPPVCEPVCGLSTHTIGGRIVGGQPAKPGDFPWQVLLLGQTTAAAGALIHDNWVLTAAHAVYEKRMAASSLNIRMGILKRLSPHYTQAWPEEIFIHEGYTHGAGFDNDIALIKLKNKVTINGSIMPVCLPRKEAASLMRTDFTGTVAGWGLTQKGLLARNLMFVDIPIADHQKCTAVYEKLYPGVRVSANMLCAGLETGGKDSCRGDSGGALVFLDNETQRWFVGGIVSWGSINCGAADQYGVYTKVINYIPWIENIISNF
Chain of dog MASP-2 (endogenous, in dog serum) (dog) (chain, as listed by the source limits assumed): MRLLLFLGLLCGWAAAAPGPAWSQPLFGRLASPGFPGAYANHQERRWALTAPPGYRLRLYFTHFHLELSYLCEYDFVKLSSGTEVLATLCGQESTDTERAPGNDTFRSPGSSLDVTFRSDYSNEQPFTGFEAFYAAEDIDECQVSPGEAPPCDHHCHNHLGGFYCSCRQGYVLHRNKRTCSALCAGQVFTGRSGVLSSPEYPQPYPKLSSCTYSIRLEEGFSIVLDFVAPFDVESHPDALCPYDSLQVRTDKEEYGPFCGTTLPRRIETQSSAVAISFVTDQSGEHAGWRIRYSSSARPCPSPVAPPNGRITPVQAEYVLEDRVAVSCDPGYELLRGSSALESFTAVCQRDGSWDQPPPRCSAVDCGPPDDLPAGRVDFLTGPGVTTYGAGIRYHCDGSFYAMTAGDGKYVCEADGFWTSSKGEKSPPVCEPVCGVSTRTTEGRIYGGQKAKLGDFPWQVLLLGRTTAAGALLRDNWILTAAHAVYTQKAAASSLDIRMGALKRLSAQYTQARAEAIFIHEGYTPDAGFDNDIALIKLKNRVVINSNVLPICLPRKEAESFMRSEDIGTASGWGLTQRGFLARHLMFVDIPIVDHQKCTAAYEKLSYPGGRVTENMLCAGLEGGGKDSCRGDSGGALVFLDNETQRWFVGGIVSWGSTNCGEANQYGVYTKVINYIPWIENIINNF
Chain of human MASP-2 (endogenous, in normal human serum) (O00187 16-686 limits assumed): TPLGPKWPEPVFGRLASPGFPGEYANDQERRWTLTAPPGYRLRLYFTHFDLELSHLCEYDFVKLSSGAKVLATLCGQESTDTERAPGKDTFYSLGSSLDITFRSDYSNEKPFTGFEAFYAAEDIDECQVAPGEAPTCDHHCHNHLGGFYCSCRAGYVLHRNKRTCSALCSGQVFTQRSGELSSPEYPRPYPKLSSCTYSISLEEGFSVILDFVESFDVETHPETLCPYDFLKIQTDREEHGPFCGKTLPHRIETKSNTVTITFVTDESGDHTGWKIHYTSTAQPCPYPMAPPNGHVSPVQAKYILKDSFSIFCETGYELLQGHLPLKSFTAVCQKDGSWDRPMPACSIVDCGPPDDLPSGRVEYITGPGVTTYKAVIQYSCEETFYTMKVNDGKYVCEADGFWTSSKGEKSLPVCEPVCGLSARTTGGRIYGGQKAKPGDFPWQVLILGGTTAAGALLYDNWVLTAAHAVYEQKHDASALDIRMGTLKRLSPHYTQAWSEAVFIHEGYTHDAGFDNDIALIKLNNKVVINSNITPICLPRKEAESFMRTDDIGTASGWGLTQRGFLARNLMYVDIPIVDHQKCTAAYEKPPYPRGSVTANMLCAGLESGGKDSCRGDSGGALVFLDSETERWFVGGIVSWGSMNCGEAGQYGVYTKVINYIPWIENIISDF
Chain of cynomolgus monkey MASP-2 (endogenous, in cynomolgus monkey serum) (O00187 other isoform, or with tags, fused parts or gaps limits assumed): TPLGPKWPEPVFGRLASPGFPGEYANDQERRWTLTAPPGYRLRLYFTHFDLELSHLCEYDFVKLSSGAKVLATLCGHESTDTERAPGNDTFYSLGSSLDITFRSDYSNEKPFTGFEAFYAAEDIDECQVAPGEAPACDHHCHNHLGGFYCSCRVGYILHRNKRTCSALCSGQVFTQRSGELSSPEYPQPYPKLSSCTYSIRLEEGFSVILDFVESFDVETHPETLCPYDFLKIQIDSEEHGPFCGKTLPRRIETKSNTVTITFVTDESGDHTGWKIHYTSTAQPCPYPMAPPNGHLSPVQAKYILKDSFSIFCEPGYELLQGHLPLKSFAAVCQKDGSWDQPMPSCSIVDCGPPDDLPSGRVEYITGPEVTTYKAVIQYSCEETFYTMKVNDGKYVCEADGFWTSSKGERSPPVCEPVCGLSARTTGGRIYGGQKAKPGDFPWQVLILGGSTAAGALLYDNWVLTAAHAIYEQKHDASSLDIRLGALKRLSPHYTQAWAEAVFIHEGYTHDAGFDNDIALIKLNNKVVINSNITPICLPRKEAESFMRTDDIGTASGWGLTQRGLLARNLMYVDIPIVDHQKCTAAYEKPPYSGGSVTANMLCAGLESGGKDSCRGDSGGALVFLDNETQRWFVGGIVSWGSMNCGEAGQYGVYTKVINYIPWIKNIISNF
Chain of Recombinant human MASP-2 (specificity ELISA, Example 14) (O00187 16-686 limits assumed): as the sequence (O00187 16-686 limits assumed) above

B1: mAb OMS858 (humanized anti-MASP-2 antibody) (antibody, V domains shown)
VH: QVQLVQSGAEVKKPGASVKVSCKASGYTFTNHHMHWLRQAPGQGLEWIGDIDASDSETHYIEKFKDRATLTIDKSSSTAYMELSSLRSEDTAVYYCARGDITTTLRYFDVWGQGTLVTVSS
VL: DIQLTQSPSSLSASVGDRVTITCSASSSVRYMYWYQQKPGKAPKLLIYDTSNLASGVPSRFSGSGSGTDNTLTISSLQPEDFATYYCQQWSSYPLTFGQGTKVEIKR
notes: also called antibody OMS858; biotinylated OMS858
In the case of B1, the Kd in test [1] is 0.047 µg/mL. In addition, in [2], the Kd is more than 100 µg/mL. Also, the Kd in test [3] is more than 100 µg/mL. In addition, the Kd in test [4] is more than 100 µg/mL. In test [5], the “lectin-dependent C4 activation in 50% dog serum, IC50, Experiment 1” value was more than 500 nM; the “lectin-dependent C4 activation in 50% dog serum, IC50, Experiment 2” value is more than 500 nM; the “lectin-dependent C4 activation in 50% dog serum, IC50, Experiment 3” value is more than 500 nM. In test [6], the “lectin-dependent C4 activation in 50% rabbit serum, IC50, Experiment 1” value is more than 500 nM; the “lectin-dependent C4 activation in 50% rabbit serum, IC50, Experiment 2” value was more than 500 nM; the “lectin-dependent C4 activation in 50% rabbit serum, IC50, Experiment 3” value was more than 500 nM. In test [7], the “lectin-dependent C4 activation in 50% mouse hirudin plasma, IC50, Experiment 1” value is 9.59 nM; the “lectin-dependent C4 activation in 50% mouse hirudin plasma, IC50, Experiment 2” value was determined as 11.2 nM; the “lectin-dependent C4 activation in 50% mouse hirudin plasma, IC50, Experiment 3” value came to 14.8 nM; the “lectin-dependent C4 activation in 50% mouse hirudin plasma, IC50, MEAN” value was 11.9 nM. Moreover, in test [8], the “lectin-dependent C4 activation in 50% cynomolgus monkey serum, IC50, Experiment 1” value was 42.8 nM; the “lectin-dependent C4 activation in 50% cynomolgus monkey serum, IC50, Experiment 2” value came to 44 nM; the “lectin-dependent C4 activation in 50% cynomolgus monkey serum, IC50, Experiment 3” value came to 45.5 nM; the “lectin-dependent C4 activation in 50% cynomolgus monkey serum, IC50, MEAN” value worked out at 44.1 nM. Further, in test [9], the “lectin-dependent C4 activation in 50% human serum, IC50, Experiment 1” value turned out to be 0.89 nM; the “lectin-dependent C4 activation in 50% human serum, IC50, Experiment 2” value was 0.86 nM; the “lectin-dependent C4 activation in 50% human serum, IC50, Experiment 3” value is 1.52 nM; the “lectin-dependent C4 activation in 50% human serum, IC50, MEAN” value amounted to 1.09 nM.

The values are drawn from patent US20230265215A1 (OMEROS, published 2023).
